Measurements published in US20220025071A1.

Columns and labels:
[1] = biological target: Recombinant human Fc gamma receptor I, CD64 (human) (UniProt P12314)
[2] = biological target: Recombinant human Fc gamma receptor IIIa, CD16a 158V (human) (UniProt P08637)
[3] = biological target: Recombinant human Fc gamma receptor IIIb, CD16b (human) (UniProt O75015)
[4] = biological target: Recombinant human Fc gamma receptor IIa, CD32a 131H (human) (UniProt P12318)
[5] = biological target: Recombinant human Fc gamma receptor IIa, CD32a 131R (human) (UniProt P12318)
Recombinant human Fc gamma receptor IIa, CD32a 131R (human), sequence (P12318 36-218 H167R): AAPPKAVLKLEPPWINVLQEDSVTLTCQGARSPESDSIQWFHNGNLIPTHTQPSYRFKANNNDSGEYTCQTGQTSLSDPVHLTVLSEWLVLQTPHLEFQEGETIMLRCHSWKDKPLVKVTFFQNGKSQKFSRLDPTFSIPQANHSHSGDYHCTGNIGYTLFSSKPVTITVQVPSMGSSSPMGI

[6] = biological target: Recombinant human Fc gamma receptor IIb/c, CD32b/c (human) (UniProt P31994)
Recombinant human Fc gamma receptor IIb/c, CD32b/c (human), sequence (P31994 46-217): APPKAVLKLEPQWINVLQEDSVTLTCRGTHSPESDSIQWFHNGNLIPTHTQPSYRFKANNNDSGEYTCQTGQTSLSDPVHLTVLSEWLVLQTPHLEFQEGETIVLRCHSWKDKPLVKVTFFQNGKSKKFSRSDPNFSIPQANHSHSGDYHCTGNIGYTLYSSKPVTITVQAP

[7] = biological target: CD20 Lipoparticles (UniProt P11836)
CD20 Lipoparticles, sequence (P11836 whole entry): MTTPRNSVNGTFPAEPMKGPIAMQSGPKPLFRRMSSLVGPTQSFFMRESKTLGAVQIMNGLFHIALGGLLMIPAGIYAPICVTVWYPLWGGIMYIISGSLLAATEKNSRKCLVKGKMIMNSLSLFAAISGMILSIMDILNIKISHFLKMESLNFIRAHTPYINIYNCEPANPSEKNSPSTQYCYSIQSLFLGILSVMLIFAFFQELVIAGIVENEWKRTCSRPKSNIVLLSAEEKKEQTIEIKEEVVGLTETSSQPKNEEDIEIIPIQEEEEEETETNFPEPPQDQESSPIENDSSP

Recombinant human Fc gamma receptor IIa, CD32a 131H (human), sequence (P12318 36-218): as the sequence (P12318 36-218 H167R) above, with R132H counted along it
Recombinant human Fc gamma receptor I, CD64 (human), sequence (P12314 16-288 limits assumed): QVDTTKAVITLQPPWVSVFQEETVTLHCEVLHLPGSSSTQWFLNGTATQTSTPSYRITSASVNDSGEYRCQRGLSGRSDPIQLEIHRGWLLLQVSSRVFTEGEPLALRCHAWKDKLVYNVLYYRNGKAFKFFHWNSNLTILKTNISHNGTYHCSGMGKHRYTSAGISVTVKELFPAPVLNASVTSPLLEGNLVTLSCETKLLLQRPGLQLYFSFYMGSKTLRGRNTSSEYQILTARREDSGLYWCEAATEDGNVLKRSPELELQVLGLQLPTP
Recombinant human Fc gamma receptor IIIb, CD16b (human), sequence (O75015 17-200 limits assumed): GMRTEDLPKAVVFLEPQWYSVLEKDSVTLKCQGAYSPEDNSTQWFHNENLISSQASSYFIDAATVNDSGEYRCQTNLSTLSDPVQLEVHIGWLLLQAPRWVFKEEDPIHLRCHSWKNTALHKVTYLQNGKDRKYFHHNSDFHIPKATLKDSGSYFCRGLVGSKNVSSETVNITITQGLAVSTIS
Recombinant human Fc gamma receptor IIIa, CD16a 158V (human), sequence (P08637 17-208 F176V limits assumed): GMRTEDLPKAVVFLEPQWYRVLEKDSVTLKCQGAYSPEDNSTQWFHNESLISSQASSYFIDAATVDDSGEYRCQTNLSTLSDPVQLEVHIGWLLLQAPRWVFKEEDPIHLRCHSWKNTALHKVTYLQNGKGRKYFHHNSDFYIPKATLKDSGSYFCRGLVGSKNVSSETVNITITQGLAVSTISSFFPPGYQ

Kd [1]: 52.8 nM | Kd [2]: 715 nM | Kd [3]: 1530 nM | Kd [4]: 892 nM | Kd [5]: 1250 nM | Kd [6]: 1520 nM | Kd [7]: < 0.001 nM
Substance: Rituxan (antibody)
